According to patent publication US20200299331A1:
Bridge positions count the residues as written; N and C are the ends.

Molecular target: TNF receptor (human)
Assay: cell-based or functional assay

- concentration of IL-6 (pg/ml, n = 5) released from fresh human whole blood, AP301 at 1 ng/ml: < 0.5 pg/mL
- concentration of IL-6 (pg/ml, n = 5) released from fresh human whole blood, AP301 at 3 ng/ml: < 0.5 pg/mL
- concentration of IL-6 (pg/ml, n = 5) released from fresh human whole blood, AP301 at 1 mg/ml as printed: < 0.5 pg/mL
- concentration of IL-6 (pg/ml, n = 5) released from fresh human whole blood, AP301 at 10 mg/ml as printed: < 0.5 pg/mL
B1: AP301 peptide (peptide)
peptide: H-CGQRETPEGAEAKPWYC-OH
modifications: bridge 1-17; also: cyclized via the Cys residues, disulfide given as preferred, bond type of batch not given here
